The values that follow come from paper PMC4433220.

The target of data set [1] is T1, Dps (Escherichia coli, UniProt P0ABT2 1-167). In words: EMSA; 2-fold Dps excess: triplex significantly reduced; EMSA: 50 mM Tris-HCl pH 7.5, 0.1 mM EDTA, 50 mM NaCl, 37°C 30 min; footprinting: 50 mM Tris-HCl pH 8.0, 0.1 mM EDTA, 0.1 mM DTT, 10 mM MgCl2, 50 mM NaCl, 5 mg/m. (In EMSA bound probe runs differently from free probe, usually more slowly.)
In data set [2] the target is T1, Dps. Nature of the data set: AFM; bound protein slightly shifted from center; EMSA: 50 mM Tris-HCl pH 7.5, 0.1 mM EDTA, 50 mM NaCl, 37°C 30 min; footprinting: 50 mM Tris-HCl pH 8.0, 0.1 mM EDTA, 0.1 mM DTT, 10 mM MgCl2, 50 mM NaCl, 5 mg/m.

B1: Y5_Y6_Y7 (structured_DNA)
DNA 1: CTTTTCCTCTACACCGTCTTTATATATCGAATTAAGAAGTCGCAATGAGTATTACTTTGTAAAT
DNA 2: CAAGGGTAAACGAACCTTGCGCTTTCTTAAATATTCGATATATAAAGACGGTGTAGAGGAAAAG
DNA 3: ATTTACAAAGTAATACTCATTGCGACTTCTTAATTTAAGAAAGCGCAAGGTTCGTTTACCCTTG
B1: the binding result in data set [1] is given as “binds”.

B2: Y5_Y6_Y8 (structured_DNA)
DNA 1: CTTTTCCTCTACACCGTCTTTATATATCGAATTAAGAAGTCGCAATGAGTATTACTTTGTAAAT
DNA 2: CAAGGGTAAACGAACCTTGCGCTTTCTTAAATATTCGATATATAAAGACGGTGTAGAGGAAAAG
DNA 3: ATTTACAAAGTAATACTCATTGCGACTTCTTAATTTAAGAAAGCGCAAGGAACGTTTACCCTTG
Take B2: in data set [2], the binding result is listed as “binds”.
